Experimental data reported in patent publication US20230312646A1 (published 2023).

Legend:
[1] = molecular target: P50 (hexapeptide with Oic and a C-terminal 3,4-dichlorinated phenylalanine); assay: ITC, 25 C
[2] = molecular target: P47 (P32 with proline replaced by octahydroindole-2-carboxylic acid, Oic); assay: ITC, 25 C

B1: Pseudomonas aeruginosa sliding clamp (other)
chain: MHFTIQREALLKPLQLVAGVVERRQTLPVLSNVLLVVEGQQLSLTGTDLEVELVGRVVLEDAAEPGEITVPARKLMDICKSLPNDVLIDIRVEEQKLLVKAGRSRFTLSTLPANDFPTVEEGPGSLNFSIAQSKLRRLIDRTSFAMAQQDVRYYLNGMLLEVNGGTLRSVATDGHRLAMCSLDAQIPSQDRHQVIVPRKGILELARLLTEQDGEVGIVLGQHHIRATTGEFTFTSKLVDGKFPDYERVLPRGGDKLVVGDRQQLREAFSRTAILSNEKYRGIRLQLSNGLLKIQANNPEQEEAEEEVQVEYNGGNLEIGFNVSYLLDVLGVIGTEQVRFILSDSNSSALVHEADNDDSAYVVMPMRL
notes: also called ^PaSC; P. aeruginosa
- Kd [1]: 0.02 µM
- Kd [2]: 0.201 µM
